From patent US20220009959A1

Legend:
[1] = target: CHO-K1 host cell proteins of mAb production clarified cell culture harvest (Chinese hamster (CHO-K1)); assay: static binding pH 6, 150 mM NaCl
[2] = target: monoclonal antibody product of the CHO-K1 production harvest; assay: static binding pH 6, 150 mM NaCl
[3] = target: CHO-K1 host cell proteins of mAb production clarified cell culture harvest (Chinese hamster (CHO-K1)); assay: static binding pH 7, 20 mM NaCl; HCP ELISA over Easy-Titer (reference: mAb m53)
[4] = target: high molecular weight HCPs (MW>150 kDa) of CHO-K1 IgG1 harvest (Chinese hamster (CHO-K1)); assay: flow-through, SEC; 10-30 CV load
[5] = target: high molecular weight HCPs (MW>150 kDa) of CHO-K1 IgG1 harvest (Chinese hamster (CHO-K1)); assay: flow-through, SEC; 1 min RT, 60 CV cut-off load
[6] = target: low molecular weight HCPs (10 kDa<MW<150 kDa) of CHO-K1 IgG1 harvest (Chinese hamster (CHO-K1)); assay: flow-through, SEC; 1 min RT, 60 CV cut-off load

| Substance | Kp (partition coefficient) [1] | Kp (partition coefficient) [2] | HCP targeted binding ratio (TBR; % HCP removed / % mAb removed) [3] | fold reduction in HMW species [4] | percent reduction in HMW % [5] | percent reduction in LMW % [6] |
| --- | --- | --- | --- | --- | --- | --- |
| 4MP-Toyopearl resin | 7.3 | 0.75 | 4.87 |  |  |  |
| 6HP-Toyopearl resin | 6.1 | 0.96 |  |  |  |  |
| 6HP/4MP-Toyopearl resin |  |  |  | 2 to 4 fold | 50% | 36% |
